Laboratory results from patent US6518401B2, “Tumor necrosis factor stimulated gene 6 (TSG-6) protein” (New York University, priority 1991, dated 2003).

Assays:
[1] = target: T1, IαI purified from human serum (Homo sapiens, UniProt P02760+P19823); experiment: TSG-6/IαI complex formation with purified proteins (SDS-PAGE, Western blot); type: binding
T1 construct: IαI is a complex protein in which the bikunin chain is linked to HC1 and HC2; supposed to determine the cleavage site for the C-terminal propeptide; from tissue; host or cells: human serum
Procedure: Purified recombinant TSG-6 protein (lane 1) and IαI purified from human serum (lane 2) were mixed and incubated for 2 min. (lane 3), 5 min. (lane 4), 10 min. (lane 5), 15 min. (lane 6), 30 min. (lane 7), or for 60 min. (lane 8) at 37° C. or for 60 min. at 0° C. (lane 9). The reaction mixtures were then separated by SDS-PAGE and subjected to Western blot analysis with rabbit anti-TSG-6 serum.
Four micrograms of purified IαI and 3 μg of purified TSG-6 protein were incubated separately for 16 hrs. at 37° C. in the absence or presence of 30 milliunits of chondroitin sulfate ABC lyase. Thereafter, control IαI was mixed with control TSG-6 protein (lane 1), chonroitinase-pretreated IαI was mixed with control TSG-6 (lane 2), and control IαI was reaction mixtured with chondroitinase-pretreated TSG-6 protein (lane 3). The reaction mixtures were incubated for 1 hr. at 37° C. before SDS-PAGE and Western blot analysis with anti-TSG-6 antibody.
(§1) Analysis of TSG-6 Binding to Carrier Protein. To determine the presence of TSG-6 binding protein, samples to be analyzed were mixed with an equal volume of TSG-6-containing serum-free supernatants of TN-5 B insect cells infected with recombinant Baculovirus and incubated at 37° C. for 30-60 min. (Purified TSG-6 protein was used in some experiments, as indicated.) Thereafter, the mixtures were analyzed for the presence of the 120-kDa complex by Western blotting with purified rabbit antibody to TSG-6 as described earlier (Wisniewski et al, J. Immunol. 151:6593-6601 (1993)). For detection of inter-α-inhibitor (IαI) epitopes by Western blotting, membranes were incubated with a rabbit anti-human IαI antibody (Dako) at a 1:2000 dilution for 1 hr.
Purification of IαI from Human Serum. IαI purified from human serum, according to Salier et al, Anal Biochem. 109:273-283 (1980), with some modifications. FPLC on Q Sepharose Fast Flow was used instead of DEAE-Sephacel chromatography. Chelating Sepharose Fast Flow was used for zinc chelate chromatography. Phenyl Superose was used for Hydrophobic chromatography and Superdex 200 was used for size-exclusion chromatography instead of Sephacryl-300. The IαI recovered was essentially pure as judged by SDS-PAGE and silver staining.
Rapid Complex Formation between Recombinant TSG-6 Protein and IαI Purified from Human Serum at 37° C. The 120kDa TSG-6/IαI complex formed readily when purified TSG-6 protein and purified IαI were incubated together at 37° C. but not at 0° C. […] This IαI derivative appears to be a by product of the reaction of TSG-6 with IαI. It should be noted that the 120kDa TSG-6/IαI complex is formed by purified TSG-6 and IαI proteins in the apparent absence of other proteins.
Chondroitin Sulfate Associated with IαI Is Required for the Formation of the TSG-6/IαI Complex. […]

[2] = Binding of TSG-6 protein to hyaluronic acid coupled to Sepharose (Western blot); design: species or system bovine
Procedure: To analyze the hyaluronic acid binding properties of the TSG-6 protein, hyaluronic acid was coupled to Sepharose (HA-Sepharose) to be used as a matrix for affinity chromatography.
To couple hyaluronic acid to Sepharose, 100 mg hyaluronic acid from bovine trachea (Sigma Chemicals) was dialyzed extensively against 0.5 M NaCl. Five ml EAH-Sepharose 4 B (Pharmacia) was washed extensively with 0.5 M NaCl and mixed with the hyaluronic acid solution. The pH was adjusted to 4.5 and 40 mg 1-(3-dimethylaminopropyl)-3-ethylcarbodiimide hydrochloride (Aldrich Chem. Co.), dissolved in 1 ml distilled water, was added dropwise under constant stirring. The pH was kept at 4.5 for 1 hr. After constantly stirring the reaction mixture overnight, 200 μl acetic acid were added for another 4 hr to block the remaining amino groups on the EAH-Sepharose. […]
To show the binding of TSG-6 protein to HA-Sepharose but not to a similarly activated and blocked control Sepharose matrix, concentrated serum-free supernatant of GSV-L5 cells was used. […] Thereafter, the supernatants were removed and analyzed by Western blotting with anti-TSG-6 antibody. […] After vigorous shaking and centrifugation the supernatants were removed, dialyzed against Tris buffered saline and analyzed by Western blotting (FIG. 15). […]

[3] = system: TSG-6 binding protein in serum; experiment: TSG-6 binding to carrier protein in sera (120-kDa complex, Western blot); settings: recombinant human TSG-6 incubated with human, fetal bovine, rabbit, or mouse serum, 37° C.
Procedure: as §1
Binding of TSG-6 Protein to a Protein Present in Mammalian Sera and in Supernatants of Human HepG-2 Hepatoma Cells. […] Recombinant human TSG-6 protein produced in insect cells migrates somewhat faster than the 35-kDa TSG-6 protein from human cells (Wisniewski et al, J. Immunol. 151:6593-6601 (1993)) possibly due to s different extent of glycosylation. […] When TSG-6 containing culture upernatants were incubate at 37° C. in the presence of fetal bovine serum (lane 3), mouse serum (lane 7), or serum-free culture supernatant of human HepG-2 hepatoma cells (lane 5), an additional 120-kDa band became readily apparent. […]

[4] = purified TSG-6 protein and purified IαI, 37° C.

T1 sequence (P02760 206-352 limits assumed): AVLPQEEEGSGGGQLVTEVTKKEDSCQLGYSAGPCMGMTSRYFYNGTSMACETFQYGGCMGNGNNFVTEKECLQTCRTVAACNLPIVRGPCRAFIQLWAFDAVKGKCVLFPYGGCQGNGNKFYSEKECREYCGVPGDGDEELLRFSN
T1 sequence (P19823 55-702 limits assumed): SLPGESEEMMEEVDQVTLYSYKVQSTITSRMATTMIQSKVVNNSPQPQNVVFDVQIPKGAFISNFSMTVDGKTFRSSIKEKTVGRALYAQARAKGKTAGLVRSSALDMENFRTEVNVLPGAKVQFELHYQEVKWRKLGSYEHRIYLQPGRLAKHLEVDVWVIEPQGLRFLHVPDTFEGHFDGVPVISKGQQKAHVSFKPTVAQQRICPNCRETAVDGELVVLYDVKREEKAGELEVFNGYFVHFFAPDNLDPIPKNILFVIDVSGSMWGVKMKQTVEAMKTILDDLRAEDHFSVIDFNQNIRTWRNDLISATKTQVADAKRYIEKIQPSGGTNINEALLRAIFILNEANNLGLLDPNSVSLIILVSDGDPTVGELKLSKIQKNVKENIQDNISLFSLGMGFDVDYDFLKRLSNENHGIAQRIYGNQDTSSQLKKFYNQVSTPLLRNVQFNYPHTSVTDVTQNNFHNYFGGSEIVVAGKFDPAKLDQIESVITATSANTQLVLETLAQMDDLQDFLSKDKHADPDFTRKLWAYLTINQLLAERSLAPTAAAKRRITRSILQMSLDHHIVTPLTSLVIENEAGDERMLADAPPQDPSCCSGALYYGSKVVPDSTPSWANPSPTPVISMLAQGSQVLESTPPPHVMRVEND
T1 sequence (P98066 18-277 partner): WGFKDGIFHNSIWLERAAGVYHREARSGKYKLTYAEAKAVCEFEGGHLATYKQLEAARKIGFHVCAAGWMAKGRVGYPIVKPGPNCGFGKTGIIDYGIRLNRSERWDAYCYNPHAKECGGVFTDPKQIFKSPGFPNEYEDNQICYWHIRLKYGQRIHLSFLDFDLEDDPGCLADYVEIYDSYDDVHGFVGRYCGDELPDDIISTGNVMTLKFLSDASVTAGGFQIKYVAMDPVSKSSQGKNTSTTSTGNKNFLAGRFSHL

Substance: TSG-6 protein: cytokine-induced protein or glycoprotein, amino acid sequence SEQ ID NO:2; from GSV-L5 cells or Baculovirus-infected insect cells
- ability to form the TSG-6/IαI complex after pretreatment of the protein with chondroitin sulfate ABC lyase ([1]; preincubated 16 hrs. at 37° C. with chondroitinase, then mixed with the untreated partner protein): little effect
- TSG-6/IαI complex formation at 0° C. ([1]; purified TSG-6 protein and purified IαI, 0° C., within 1 hr.): little or no TSG-6/IαI complex was formed
- time until TSG-6/IαI complex formation detectable [1, 4]: ≤ 2 min
- time until complex formation reaction appeared complete [1, 4]: ≤ 10 min
- binding of TSG-6 protein to HA-Sepharose ([2]; concentrated serum-free GSV-L5 culture supernatant, overnight at 4° C., elution with 3 M NaCl): bound virtually all the TSG-6 protein
- binding of TSG-6 protein to control Sepharose matrix ([2]; control Sepharose without hyaluronic acid, same procedure): did not bind any detectable TSG-6 protein
- complex formation on incubation with serum [3]: readily incorporated into a stable 120 kDa complex
